From patent US20130164256A1 (AbbVie / Abbott, published 2013)
Where a chain is given by its changes, count along the chain named. Where two headings read alike, the source gives them in different places.

B1: AE11-5 AM4 (antibody, V domains shown)
VH: EVQLVQSGAEVKKPGSSVKVSCKASGGTFSWYAISWVRQAPGQGLEWMGGITPILGSPIYAQKFQGRVTITADESTSTVYMELSSLRSEDTAVYYCARGVYYDPKRADYWGQGTLVTVSS
VL: EIVLTQSPDFQSVTPKEKVTITCRASQRIGSSLHWYQQKPDQSPKLLIKHASQSVSGVPSRFSGSGSGTDFTLTINSLEAEDAATYYCHQSRSSPPPTFGQGTKVEIK
notes: Full length IgG converted from scFv clone J703M1S3#30; Human IgG1 (hCg1,z,non-a,mut(234,235)) with human kappa; also called J703M1S3#30
B2: AE11-5 AM2 (antibody, V domains shown)
VH: B1 VH with S57A, P58A, I59N
VL: EIVLTQSPDFQSVTPKEKVTITCRASQSIGSTLHWYQQKPDQSPKLLIKHASQSNSGVPSRFSGSGSGTDFTLTINSLEAEDAATYYCHQSSSLPPPTFGQGTKVEI
notes: Full length IgG converted from scFv clone J703M1S3#13; Human IgG1 (hCg1,z,non-a,mut(234,235)) with human kappa; also called J703M1S3#13
B3: AE11-5 AM6 (antibody, V domains shown)
VH: B1 VH with P58A, I59T, V100I
VL: B1 VL with R28T, V55I, S91T, R92S, S94L, P96T
notes: Full length IgG converted from scFv clone J703M1S3#35; Human IgG1 (hCg1,z,non-a,mut(234,235)) with human kappa; also called J703M1S3#35
B4: AE11-5 AM8 (antibody, V domains shown)
VH: B1 VH with S57T, P104F
VL: B1 VL with R28T, V55I, R92S
notes: Full length IgG converted from scFv clone J703M1S3#38; Human IgG1 (hCg1,z,non-a,mut(234,235)) with human kappa; also called J703M1S3#38
B5: AE11-5 AM5 (antibody, V domains shown)
VH: B1 VH with A33P, S57A, P58G, P104F
VL: B1 VL with R28S, V55T, R92S, P97S
notes: Full length IgG converted from scFv clone J703M1S3#33; Human IgG1 (hCg1,z,non-a,mut(234,235)) with human kappa; also called J703M1S3#33
B6: AE11-5 AM9 (antibody, V domains shown)
VH: B1 VH with V100I
VL: B1 VL with R28S, A51V, V55L, S91R, R92S, P96S
notes: Full length IgG converted from scFv clone J703M1S3#69; Human IgG1 (hCg1,z,non-a,mut(234,235)) with human kappa; also called J703M1S3#69
B7: AE11-5 AM10 (antibody, V domains shown)
VH: B1 VH with P104Y
VL: B1 VL with R28S, S32N, V55I, S91T, S93T, P97L
notes: Full length IgG converted from scFv clone J703M1S3#90; Human IgG1 (hCg1,z,non-a,mut(234,235)) with human kappa; also called J703M1S3#90
B8: AE11-5 AM1 (antibody, V domains shown)
VH: B1 VH with I34T, P104H, K105R
VL: B1 VL with R28S, S31N, S32T, A51V, S91K, R92V, P96S
notes: Full length IgG converted from scFv clone J703M1S3#2; Heavy chain plasmid is pHybE-hCg1,z,non-a,mut(234,235), i.e. human IgG1 with mutations at 234 and 235; Light chain plasmid is pHybE-hCk, i.e. human kappa; also called J703M1S3#2
B9: AE11-5 AM3 (antibody, V domains shown)
VH: B1 VH with S57T, P58A, I59N
VL: B1 VL with R28S, S32R, V55T, R92G, P97R
notes: Full length IgG converted from scFv clone J703M1S3#26; Human IgG1 (hCg1,z,non-a,mut(234,235)) with human kappa; also called J703M1S3#26
B10: hMAK199-AM1 (antibody, V domains shown)
VH: EVQLVQSGAEVKKPGASVKVSCKASGYTFANYGIIWVRQAPGQGLEWMGWINTYTGKPTYAQKFQGRVTMTTDTSTSTAYMELSSLRSEDTAVYYCARKLFTTMDVTDNAMDYWGQGTTVTVSS
VL: DIQMTQSPSSLSASVGDRVTITCRASQDISQYLNWYQQKPGKAPKLLIYYTSRLQSGVPSRFSGSGSGTDFTLTISSLQPEDFATYFCQQGNTWPPTFGQGTKLEIK
notes: scFv clone J662M2S3#10 converted to full length IgG; HC plasmid pHybE-hCg1,z,non-a V2 (human IgG1), LC plasmid pHybE-hCk V3 (human kappa); also called J662M2S3#10
B11: hMAK199-AM9 (antibody, V domains shown)
VH: B10 VH with A30S, I35N, K57Q, T59S, T102K, M104E, D105A, N109Y
VL: B10 VL with D28N, S30Y, Q31N, Y32V, T51A, W94M
B12: hMAK199-AM6 (antibody, V domains shown)
VH: B10 VH with A30N, I35N, Y95F, L100F, F101R, T102N, M104V, D105A, N109Y
VL: B10 VL with S30Y, Q31D, Y32V, T51A, F87Y, N92I, W94L
B13: hMAK199-AM7 (antibody, V domains shown)
VH: B10 VH with A30R, I35T, Y95F
VL: B10 VL with Q31N, F71Y
B14: hMAK199-AM10 (antibody, V domains shown)
VH: B10 VH with A30N, T55S, Y95F
VL: B10 VL with Q31N, Y32F, F71Y, W94Q
B15: hMAK199-AM8 (antibody, V domains shown)
VH: B10 VH
VL: B10 VL
notes: scFv clone J662M2S3#45 converted to full length IgG; HC plasmid pHybE-hCg1,z,non-a V2 (human IgG1), LC plasmid pHybE-hCk V3 (human kappa); also called J662M2S3#45
B16: hMAK195-AM14 (antibody, V domains shown)
VH: EVQLVESGGGLVQPGGSLRLSCAASGFTFSNYGVSWVRQAPGKGLEWVSMIWADGSTHYASSLKGRFTISRDNSKNTLYLQMNSLRAEDTAVYYCAREWQHGPVAYWGQGTLVTVSS
VL: DIQMTQSPSSLSASVGDRVTITCKASQAVSSAVAWYQQKPGKAPKLLIYWASTRHTGVPSRFSGSGSGTDFTLTISSLQPEDFATYYCQQHYSTPFTFGQGTKLEIKR
notes: Full-length IgG; also called rHC3; hMAK195 rHC3
B17: hMAK195-AM16 (antibody, V domains shown)
VH: B16 VH with S35T, L63V, V104A
VL: B16 VL
notes: Full-length IgG; also called rHC19; hMAK195 rHC19
B18: hMAK195-AM25 (antibody, V domains shown)
VH: B16 VH with S35T, L63V
VL: B16 VL with K24R, A28L, R54L, S93R
notes: Full-length IgG; also called S4-24; hMAK195 S4-24
B19: hMAK195-AM17 (antibody, V domains shown)
VH: B16 VH with S35T, H58D, S61D, S62T, L63V
VL: B16 VL
notes: Full-length IgG; also called rHC22; hMAK195 rHC22

What was measured:
cynomolgus monkey TNF = biological target: T1, cynomolgus monkey TNF (cynomolgus monkey, UniProt P79337 77-233, limits assumed, biotin label in the ELISA (site not stated)); assay: ELISA; IgG captured on goat anti-human IgG-Fc, serially diluted biotinylated cyno TNF, streptavidin-HRP
T1 construct: also called cynoTNF; cyno TNF
Protocol: (§1) The following protocol is used to characterize the binding of TNF antibodies to biotinylated human or cyno TNF by enzyme-linked immunosorbent assay (ELISA). An ELISA plate was coated with 50 μl per well of goat anti human IgG-Fc at 2 μg/ml, overnight at 4° C. The plate was washed 3 times with PBS/Tween. 50 μl Mab diluted to 1 μg/ml in PBS/0.1% BSA was added to appropriate wells and incubated for 1 hour at room temperature (RT). The plate was washed 3 times with PBS/Tween. 50 μl of serial diluted biotin-human TNF was added to appropriate wells and incubated for 1 hour at RT. The plate was washed 3 times with PBS/Tween. 50 μl of streptavidin-HRP diluted 1:10,000 in PBS/0.1% BSA was added to appropriate wells and incubated for 1 hour at RT. The plate was washed 3 times with PBS/Tween. 50 μl of TMB was added to appropriate wells and the reaction was allowed to proceed for 1 minute. The reaction was stopped with 50 μl/well 2N H₂SO₄ and the absorbance read at 450 nm.

human TNF-α [1] = biological target: T2, human TNF-α (human, UniProt P01375 77-233, biotin label in the ELISA (site not stated); unlabelled in the L929 bioassay); assay: cell-based or functional assay
Rhesus/Macaque TNF [2] = biological target: Rhesus/Macaque TNF (Rhesus/Macaque, UniProt P48094 77-233); assay: cell-based or functional assay
Target sequence in this assay (P48094 77-233 limits assumed): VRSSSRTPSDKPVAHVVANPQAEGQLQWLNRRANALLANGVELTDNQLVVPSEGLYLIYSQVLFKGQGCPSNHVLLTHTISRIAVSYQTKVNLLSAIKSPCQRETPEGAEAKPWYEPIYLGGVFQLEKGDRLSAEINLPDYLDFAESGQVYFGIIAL

human TNF-α [3] = biological target: T2, human TNF-α; assay: ELISA; IgG captured on goat anti-human IgG-Fc, serially diluted biotinylated human TNF, streptavidin-HRP
Protocol: as §1

human TNF-α [4] = biological target: T3, human TNF-α (human, UniProt P01375 77-233); assay: hTNFa ELISA; IgG captured on anti-human IgG-Fc, biotinylated human TNF titrated
T3 construct: The ELISA protocol (section 1.3) uses biotinylated human TNF; The L929 assay uses human TNF prepared at Abbott Bioresearch Center; also called hTNFa; hTNF
T3 sequence (P01375 77-233 R107D limits assumed): as the sequence (P48094 77-233 limits assumed) above, with R31D, T44R, N72T, L138R counted along it

human TNF-α [5] = biological target: T3, human TNF-α; assay: cell-based or functional assay
Rhesus/Macaque TNF [6] = biological target: Rhesus/Macaque TNF (Rhesus/Macaque, UniProt P48094 77-233); assay: cell-based or functional assay; remark: listed apart in the source
Target sequence in this assay (P48094 77-233 limits assumed): as the sequence (P48094 77-233 limits assumed) above

human TNF-α [7] = biological target: T4, human TNF-α (human, UniProt P01375 77-233); assay: cell-based or functional assay; remark: listed apart in the source
T4 sequence (P01375 77-233 R107D limits assumed): as the sequence (P48094 77-233 limits assumed) above, with R31D, T44R, N72T, L138R counted along it

Rhesus/Macaque TNF [8] = biological target: Rhesus/Macaque TNF (rhesus/macaque, UniProt P48094 77-233); assay: cell-based or functional assay
human TNF-α [9] = biological target: T4, human TNF-α; assay: ELISA: IgG captured on goat anti-human IgG-Fc, biotin-human TNF titrated, streptavidin-HRP

T1 sequence (P79337 77-233 limits assumed): as the sequence (P48094 77-233 limits assumed) above, with L37V counted along it
T2 sequence (P01375 77-233 R107D limits assumed): as the sequence (P48094 77-233 limits assumed) above, with R31D, T44R, N72T, L138R counted along it
Chain of Rhesus/Macaque TNF (rhesus/macaque, UniProt P48094 77-233) (P48094 77-233 limits assumed): as the sequence (P48094 77-233 limits assumed) above

Binder	EC50 (cynomolgus monkey TNF) [nM]	hu TNF neutralization IC50 (human TNF-α [1]) [nM]	rhesus TNF neutralization IC50 (Rhesus/Macaque TNF [2]) [nM]	EC50 (human TNF-α [3]) [nM]	rhesus TNF neutralization IC50 (Rhesus/Macaque TNF [6]) [nM]	also measured
B1	750	0.259	0.109	18.3	–	–
B2	–	1.24	0.756	522	–	–
B3	–	2.03	0.652	1.37	–	–
B4	58.6	1.36	3.04	250	–	–
B5	2.2	0.968	0.613	17.7	–	–
B6	5.29	0.391	0.123	16.7	–	–
B7	0.28	0.678	0.14	0.98	–	–
B8	2.14	0.439	0.251	1.06	–	–
B9	1.55	0.291	0.165	1.57	–	–
B10	–	–	–	–	0.012	EC50 (human TNF-α [4]): 0.016 nM; hu TNF neutralization IC50 (human TNF-α [5]): 0.054 nM
B11	–	–	–	–	0.089	–
B12	–	–	–	–	0.004	–
B13	–	–	–	–	0.051	–
B14	–	–	–	–	0.034	–
B15	–	–	–	–	0.204	EC50 (human TNF-α [4]): 0.219 nM; hu TNF neutralization IC50 (human TNF-α [5]): 0.247 nM
B16	–	–	–	–	–	hu TNF neutralization IC50 (L929 bioassay) (human TNF-α [7]): 0.0401 nM; rhesus TNF neutralization IC50 (L929 bioassay) (Rhesus/Macaque TNF [8]): 4.61 nM; EC50 (human TNF-α [9]): 0.051 nM
B17	–	–	–	–	–	hu TNF neutralization IC50 (L929 bioassay) (human TNF-α [7]): 0.0105 nM; rhesus TNF neutralization IC50 (L929 bioassay) (Rhesus/Macaque TNF [8]): 0.803 nM; EC50 (human TNF-α [9]): 0.056 nM
B18	–	–	–	–	–	hu TNF neutralization IC50 (L929 bioassay) (human TNF-α [7]): 0.0114 nM; rhesus TNF neutralization IC50 (L929 bioassay) (Rhesus/Macaque TNF [8]): 0.262 nM; EC50 (human TNF-α [9]): 0.052 nM
B19	–	–	–	–	–	hu TNF neutralization IC50 (L929 bioassay) (human TNF-α [7]): 0.0031 nM; rhesus TNF neutralization IC50 (L929 bioassay) (Rhesus/Macaque TNF [8]): > 25 nM; EC50 (human TNF-α [9]): 0.056 nM
